Test results: patent US20230398228A1, “ERIBULIN-BASED ANTIBODY-DRUG CONJUGATES AND METHODS OF USE” (EISAI R&D MANAGEMENT CO., LTD., priority 2016, published 2023)
Several values for one entry are separate records, joined by “and”; a condition that tells them apart may be missing. Equal entries are not always repeated.

Columns and labels:
[1] = tested on: CaOV3 cells; experiment: Crystal Violet cytotoxicity assay (Example 1), CaOV3; format: cell-based, human
Method: Typically, test reagents were serial diluted 1:4 in 2 mL deep-well dilution plates, starting at 1 μM (10 dilutions total). 100 μL of diluted samples were added to the cell plates (starting concentration of test samples at 500 nM). […] Medium was discarded, plates were washed once with 200 μL DPBS, stained with 50 μL of 0.2% Crystal Violet solution at room temperature for 15 min, and then washed extensively with tap water. Plates were air-dried, and Crystal Violet was dissolved with 200 μL of 1% SDS solution. Plates were read at 570 nm. […] Assays were performed using a seeding density of 1,000 cells per well and compound exposure was for a total of 5 days. When shorter-term exposure was desired, medium containing cytotoxic agents was removed after 4 hours and replaced with fresh growth medium prior to 5-day incubation. For OVCAR3, CaOV3, and NCI-H2110, cells were seeded at 3,000 cells/well and incubated for 5 days with ADC.
Screening of selected ADCs was also performed in CaOV3 (human ovarian carcinoma, FR^med(++), NCI-H2110 (human non-small cell lung carcinoma, FR^med(++), and/or OVCAR3 (human ovarian carcinoma, FR^med(++)) cells. The results of this screening are provided in Table 16.

[2] = Maximum tolerated dose of MORAb-202 in CD-1 mice; format: in vivo, mouse
Method: Body weight was measured prior to dose on the dosing day, 24 hours post dose, and three times a week thereafter. […] Two weeks after dosing, the terminal body weight was measured and recorded. Euthanized mice at the end of the study (and if any mouse euthanized or found dead during the study) were processed for necropsy. Organs were examined for signs of tissue damage.

[3] = tested on: LXFA-737 NSCLC patient-derived xenograft; experiment: NSCLC PDx model LXFA-737; format: in vivo, mouse; details: for Tumor Growth Inhibition: vehicle = 100
Source text: Tumor implantation: NSCLC tumor fragments were obtained from LXFA-737 tumor xenografts serially passaged in nude mice. After removal from donor mice, tumors were cut into fragments (3-4 mm edge length) and placed in phosphate-buffered saline (PBS) containing 10% penicillin/streptomycin. Recipient animals were anesthetized by inhalation of isoflurane and received unilateral or bilateral tumor implants subcutaneously in the flank. Tumor xenografts were implanted with one or two tumors per mouse at a take rate <65%. In the case of a bilateral take, one of these tumors was explanted prior to randomization. Animals and tumor implants were monitored daily until solid tumor growth was detectable in a sufficient number of animals. At randomization, the volume of growing tumors was determined. […] Animals not used for experiments were euthanized.
Body weight was measured prior to dose on each dosing day, and two times per week during the study. At the end of the study, the terminal body weight was measured and recorded.

[4] = tested on: NCI-N87 cells; experiment: Crystal Violet cytotoxicity assay (Example 4), NCI-N87; format: cell-based, human
Method: (§1) Test reagents were serial diluted 1:3 in 2 mL deep-well dilution plates, starting at 200 nM (10 dilutions total). […] Medium was then discarded. […] Plates were read at 570 nm. Data was analyzed using GraphPad Prism 6.

[5] = tested on: BT-474 cells; experiment: Crystal Violet cytotoxicity assay (Example 4), BT-474; format: cell-based, human
Method: as §1

[6] = tested on: OD-BRE-0631 TNBC patient-derived xenograft; details: 5 mg/kg single dose, five days post-treatment
[7] = 5 mg/kg single dose i.v., Day 21, n = 6
[8] = 5 mg/kg single dose i.v., Day 32, n = 6
[9] = 5 mg/kg single dose i.v., Day 74, n = 6

Substance: MORAb-003-maleimido-PEG2-Val-Cit-pAB-eribulin [MORAb-202]
- IC50 ([1]; CaOV3 cells, mean of replicate experiments, where performed): 3.7 nM
- cytotoxicity on CaOV3 cells, in words ([1]; Example 1): potent cytotoxicity
- Body weight of individual mice ([2]; 10 mg/kg single bolus i.v., CD-1 mice, day 0 post Rx): 22.60 g and 23.50 g and 21.80 g
- Body weight, group mean ([2]; 10 mg/kg single bolus i.v., CD-1 mice, day 0 post injections): 22.6 g
- Body weight of individual mice ([2]; 10 mg/kg single bolus i.v., CD-1 mice, day 1 post Rx): 22.80 g and 23.80 g
- Body weight, group mean ([2]; 10 mg/kg single bolus i.v., CD-1 mice, day 1 post injections): 23.2 g
- Body weight of individual mice ([2]; 10 mg/kg single bolus i.v., CD-1 mice, day 2 post Rx): 23.30 g and 24.00 g and 22.90 g
- Body weight, group mean ([2]; 10 mg/kg single bolus i.v., CD-1 mice, day 2 post injections): 25.4 g
- Body weight of individual mice ([2]; 10 mg/kg single bolus i.v., CD-1 mice, day 4 post Rx): 23.30 g (2×) and 23.90 g
- Body weight, group mean ([2]; 10 mg/kg single bolus i.v., CD-1 mice, day 4 post injections): 23.5 g
- Body weight of individual mice ([2]; 10 mg/kg single bolus i.v., CD-1 mice, day 7 post Rx): 24.80 g and 25.20 g and 24.90 g
- Body weight, group mean ([2]; 10 mg/kg single bolus i.v., CD-1 mice, day 7 post injections): 25.0 g
- Body weight of individual mice ([2]; 10 mg/kg single bolus i.v., CD-1 mice, day 9 post Rx): 24.90 g and 25.30 g and 25.00 g
- Body weight, group mean ([2]; 10 mg/kg single bolus i.v., CD-1 mice, day 9 post injections): 25.1 g
- Body weight of individual mice ([2]; 10 mg/kg single bolus i.v., CD-1 mice, day 11 post Rx): 24.30 g (2×) and 25.10 g
- Body weight, group mean ([2]; 10 mg/kg single bolus i.v., CD-1 mice, day 11 post injections): 24.6 g
- Body weight of individual mice ([2]; 10 mg/kg single bolus i.v., CD-1 mice, day 14 post Rx): 25.80 g and 25.60 g and 25.70 g
- Body weight, group mean ([2]; 10 mg/kg single bolus i.v., CD-1 mice, day 14 post injections): 25.7 g
- Body weight of individual mice ([2]; 20 mg/kg single bolus i.v., CD-1 mice, day 0 post Rx): 27.40 g and 26.20 g and 21.00 g
- Body weight, group mean ([2]; 20 mg/kg single bolus i.v., CD-1 mice, day 0 post injections): 24.9 g
- Body weight of individual mice ([2]; 20 mg/kg single bolus i.v., CD-1 mice, day 1 post Rx): 28.80 g and 27.50 g and 21.40 g
- Body weight, group mean ([2]; 20 mg/kg single bolus i.v., CD-1 mice, day 1 post injections): 25.9 g
- Body weight of individual mice ([2]; 20 mg/kg single bolus i.v., CD-1 mice, day 2 post Rx): 29.30 g and 29.00 g and 22.10 g
- Body weight, group mean ([2]; 20 mg/kg single bolus i.v., CD-1 mice, day 2 post injections): 26.8 g
- Body weight of individual mice ([2]; 20 mg/kg single bolus i.v., CD-1 mice, day 4 post Rx): 30.20 g and 31.00 g
- Body weight, group mean ([2]; 20 mg/kg single bolus i.v., CD-1 mice, day 4 post injections): 28.1 g
- Body weight of individual mice ([2]; 20 mg/kg single bolus i.v., CD-1 mice, day 7 post Rx): 29.60 g and 32.00 g and 24.00 g
- Body weight, group mean ([2]; 20 mg/kg single bolus i.v., CD-1 mice, day 7 post injections): 28.5 g
- Body weight of individual mice ([2]; 20 mg/kg single bolus i.v., CD-1 mice, day 9 post Rx): 30.80 g and 31.70 g and 23.40 g
- Body weight, group mean ([2]; 20 mg/kg single bolus i.v., CD-1 mice, day 9 post injections): 28.6 g
- Body weight of individual mice ([2]; 20 mg/kg single bolus i.v., CD-1 mice, day 11 post Rx): 31.00 g and 32.40 g and 23.80 g
- Body weight, group mean ([2]; 20 mg/kg single bolus i.v., CD-1 mice, day 11 post injections): 29.1 g
- Body weight of individual mice ([2]; 20 mg/kg single bolus i.v., CD-1 mice, day 14 post Rx): 33.20 g and 32.40 g and 24.10 g
- Body weight, group mean ([2]; 20 mg/kg single bolus i.v., CD-1 mice, day 14 post injections): 29.9 g
- Body weight of individual mice ([2]; 40 mg/kg single bolus i.v., CD-1 mice, day 0 post Rx): 23.80 g and 23.30 g and 21.70 g
- Body weight, group mean ([2]; 40 mg/kg single bolus i.v., CD-1 mice, day 0 post injections): 22.9 g
- Body weight of individual mice ([2]; 40 mg/kg single bolus i.v., CD-1 mice, day 1 post Rx): 23.60 g and 23.50 g and 21.60 g
- Body weight, group mean ([2]; 40 mg/kg single bolus i.v., CD-1 mice, day 1 post injections): 22.9 g
- Body weight of individual mice ([2]; 40 mg/kg single bolus i.v., CD-1 mice, day 2 post Rx): 23.60 g and 24.60 g and 21.80 g
- Body weight, group mean ([2]; 40 mg/kg single bolus i.v., CD-1 mice, day 2 post injections): 23.3 g
- Body weight of individual mice ([2]; 40 mg/kg single bolus i.v., CD-1 mice, day 4 post Rx): 24.40 g and 24.10 g and 22.70 g
- Body weight, group mean ([2]; 40 mg/kg single bolus i.v., CD-1 mice, day 4 post injections): 23.7 g
- Body weight of individual mice ([2]; 40 mg/kg single bolus i.v., CD-1 mice, day 7 post Rx): 25.10 g and 25.50 g and 23.40 g
- Body weight, group mean ([2]; 40 mg/kg single bolus i.v., CD-1 mice, day 7 post injections): 24.7 g
- Body weight of individual mice ([2]; 40 mg/kg single bolus i.v., CD-1 mice, day 9 post Rx): 25.80 g and 25.20 g and 23.70 g
- Body weight, group mean ([2]; 40 mg/kg single bolus i.v., CD-1 mice, day 9 post injections): 24.9 g
- Body weight of individual mice ([2]; 40 mg/kg single bolus i.v., CD-1 mice, day 11 post Rx): 25.30 g and 25.00 g and 23.80 g
- Body weight, group mean ([2]; 40 mg/kg single bolus i.v., CD-1 mice, day 11 post injections): 24.7 g
- Body weight of individual mice ([2]; 40 mg/kg single bolus i.v., CD-1 mice, day 14 post Rx): 25.70 g and 25.30 g and 26.30 g
- Body weight, group mean ([2]; 40 mg/kg single bolus i.v., CD-1 mice, day 14 post injections): 25.8 g
- Body weight of individual mice ([2]; 80 mg/kg single bolus i.v., CD-1 mice, day 0 post Rx): 21.80 g and 26.50 g and 25.80 g
- Body weight, group mean ([2]; 80 mg/kg single bolus i.v., CD-1 mice, day 0 post injections): 24.7 g
- Body weight of individual mice ([2]; 80 mg/kg single bolus i.v., CD-1 mice, day 1 post Rx): 23.10 g and 27.80 g (2×)
- Body weight, group mean ([2]; 80 mg/kg single bolus i.v., CD-1 mice, day 1 post injections): 26.2 g
- Body weight of individual mice ([2]; 80 mg/kg single bolus i.v., CD-1 mice, day 2 post Rx): 23.30 g and 28.30 g (2×)
- Body weight, group mean ([2]; 80 mg/kg single bolus i.v., CD-1 mice, day 2 post injections): 26.6 g
- Body weight of individual mice ([2]; 80 mg/kg single bolus i.v., CD-1 mice, day 4 post Rx): 23.50 g and 29.50 g and 28.60 g
- Body weight, group mean ([2]; 80 mg/kg single bolus i.v., CD-1 mice, day 4 post injections): 27.2 g
- Body weight of individual mice ([2]; 80 mg/kg single bolus i.v., CD-1 mice, day 7 post Rx): 23.30 g and 30.40 g and 30.10 g
- Body weight, group mean ([2]; 80 mg/kg single bolus i.v., CD-1 mice, day 7 post injections): 27.9 g
- Body weight of individual mice ([2]; 80 mg/kg single bolus i.v., CD-1 mice, day 9 post Rx): 23.60 g and 31.00 g and 30.20 g
- Body weight, group mean ([2]; 80 mg/kg single bolus i.v., CD-1 mice, day 9 post injections): 28.3 g
- Body weight of individual mice ([2]; 80 mg/kg single bolus i.v., CD-1 mice, day 11 post Rx): 23.10 g and 29.10 g and 29.40 g
- Body weight, group mean ([2]; 80 mg/kg single bolus i.v., CD-1 mice, day 11 post injections): 27.2 g
- Body weight of individual mice ([2]; 80 mg/kg single bolus i.v., CD-1 mice, day 14 post Rx): 21.70 g and 28.40 g and 28.90 g
- Body weight, group mean ([2]; 80 mg/kg single bolus i.v., CD-1 mice, day 14 post injections): 26.3 g
- toxicity, in words ([2]; doses up to 80 mg/kg via bolus intravenous administration): no toxicity
- maximum tolerated dose (MTD) ([2]; single bolus intravenous dose, CD-1 mice): above 80 mg/kg
- body weight loss compared with PBS control, in words ([2]; single i.v. dose 10, 20, 40 or 80 mg/kg): No significant body weight loss
- body weight loss versus vehicle, in words ([3]; 5 mg/kg single dose): no significant body weight loss
- Tumor Volume [3, 7]: 22.9 mm^3
- Tumor Growth Inhibition [3, 7]: (2.3) %
- Tumor Volume [3, 8]: 4.7 mm^3
- Tumor Growth Inhibition [3, 8]: (0.3) %
- Tumor Volume [3, 9]: 418.3 mm^3
- tumor-free mice [3, 9]: (4/6 tumor-free)
- mice considered tumor-free at Day 32 ([3]; 5 mg/kg single dose, six mice): Five of the six
- mice that remained tumor-free through Day 74 ([3]; 5 mg/kg single dose, six mice): four
- anti-tumor activity, in words ([3]; 5 mg/kg single i.v. dose): significant tumor regression
- cytotoxicity on NCI-N87 cells, in words [4]: weak but specific killing
- cytotoxicity on BT-474 cells, in words [5]: little killing
- cancer associated fibroblast structure by anti-α-SMA-FITC IHC, in words [6]: diminish the structure of cancer associated fibroblasts
- tumor cell occupation by IHC with anti-human IgG antibody, in words [6]: occupies folate receptor alpha-expressing tumor cells
